± gives the standard deviation of the averaged measurements.
What was measured:
Saccharomyces cerevisiae [1] = experiment: protein stability index of tFT-peptide fusion (C-terminal peptide) (PSI (0-1 scale)); higher = more stable (slower turnover)
Description: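 MPS profiling in S. cerevisiae of the tFT-X12 degron library: putative degron peptides plus stable controls, 12 aa, fused to the C-terminus of a sfGFP-mCherry timer. Cells are FACS-sorted into 8 mCherry/sfGFP bins and deep-sequenced. PSI runs from 0 (unstable) to 1 (stable). Backgrounds are wild type, das1Δ and doa10Δ at 30 °C, and wild type, das1Δ, cdc34-1 and cdc53-1 at 37 °C; 2-3 technical replicates each.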

Saccharomyces cerevisiae [2] = experiment: as above; conditions: genetic background: wild type; temperature: 30 C
[3] = genetic background: cdc34-1, temperature: 37 C
[4] = genetic background: cdc53-1, temperature: 37 C
[5] = genetic background: das1 deletion, temperature: 30 C
[6] = genetic background: das1 deletion, temperature: 37 C
[7] = genetic background: doa10 deletion, temperature: 30 C
[8] = genetic background: wild type, temperature: 30 C
[9] = genetic background: wild type, temperature: 37 C
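Also: PSI is a weighted mean of sequencing reads over stability bins, variants kept only with over 10 reads, mCherry proximal and sfGFP distal, peptide attached via GGGS linker.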

Sequence | protein stability index (Saccharomyces cerevisiae [1]; [3]) | protein stability index (Saccharomyces cerevisiae [1]; [4]) | protein stability index (Saccharomyces cerevisiae [1]; [5]) | protein stability index (Saccharomyces cerevisiae [1]; [6]) | protein stability index (Saccharomyces cerevisiae [1]; [7]) | protein stability index (Saccharomyces cerevisiae [1]; [8]) | protein stability index (Saccharomyces cerevisiae [1]; [9]) | protein stability index (Saccharomyces cerevisiae [2])
FGLLLVLASALG | 0.356 ± 0.034 | 0.438 ± 0.026 | 0.318 ± 0.022 | 0.465 ± 0.018 | 0.284 ± 0.024 | 0.307 ± 0.019 | 0.4411 ± 0.0012 | 0.3828 ± 0.0021
TLLMVSMTVRPL | 0.3005 ± 0.00077 | 0.379 ± 0.02 | 0.274 ± 0.022 | 0.411 ± 0.011 | 0.26 ± 0.0094 | 0.272 ± 0.022 | 0.398 ± 0.036 | 0.38 ± 0.0051
RITGCWKTYKMQ | 0.6341 ± 0.00082 | 0.721 ± 0.0019 | 0.615 ± 0.0094 | 0.758 ± 0.055 | 0.14145 ± 6.9e-05 | 0.164 ± 0.026 | 0.342 ± 0.073 | 0.308 ± 0.055
IFIVLDFRCVSS | 0.302 ± 0.1 | 0.463 ± 0.024 | 0.256 ± 0.016 | 0.4371 ± 0.0012 | 0.243 ± 0.011 | 0.242 ± 0.043 | 0.381 ± 0.046 | 0.339 ± 0.016
RYCVVDISAFCD | 0.489 ± 0.017 | 0.576 ± 0.021 | 0.368 ± 0.029 | 0.5947 ± 0.0057 | 0.37 ± 0.017 | 0.388 ± 0.026 | 0.573 ± 0.024 | 0.465 ± 0.0094
CIHMNCSMMIIS | 0.0533 ± 0.045 | 0.084 ± 0.0027 | 0.168 ± 0.0061 | 0.0659 ± 0.029 | 0.169 ± 0.0045 | 0.132 ± 0.036 | 0.0482 ± 0.035 | 0.135 ± 0.0034
RVTYWKAVLVRL | 0.47 ± 0.07 | 0.461 ± 0.022 | 0.44 ± 0.031 | 0.6 ± 0.017 | 0.108 ± 0.025 | 0.109 ± 0.025 | 0.13 ± 0.0084 | 0.212 ± 0.016
IVLCVFTVDSDF | 0.36 ± 0.0079 | 0.478 ± 0.058 | 0.314 ± 0.024 | 0.5441 ± 0.0044 | 0.266 ± 0.006 | 0.291 ± 0.021 | 0.5126 ± 0.0039 | 0.407 ± 0.0073
VCNYRKLIWKHH | 0.52 ± 0.024 | 0.661 ± 0.047 | 0.653 ± 0.015 | 0.746 ± 0.029 | 0.0622 ± 0.031 | 0.0668 ± 0.033 | 0.13 ± 0.012 | 0.181 ± 0.023
SPTQIPLWILAS | 0.258 ± 0.0095 | 0.394 ± 0.04 | 0.308 ± 0.04 | 0.4539 ± 0.0022 | 0.102 ± 0.0074 | 0.114 ± 0.014 | 0.12 ± 0.015 | 0.186 ± 0.015
FLMLFVVLWLFL | 0.427 ± 0.026 | 0.46 ± 0.0076 | 0.394 ± 0.028 | 0.522 ± 0.071 | 0.389 ± 0.014 | 0.369 ± 0.04 | 0.448 ± 0.0072 | 0.366 ± 0.076
YVCVVSVLLGLL | 0.25 ± 0.017 | 0.319 ± 0.029 | 0.24 ± 0.026 | 0.441 ± 0.0082 | 0.19367 ± 8.4e-05 | 0.226 ± 0.015 | 0.3823 ± 0.0025 | 0.31 ± 0.031
EYGLLLTLLAYY | 0.4526 ± 0.0018 | 0.508 ± 0.047 | 0.351 ± 0.026 | 0.549 ± 0.0092 | 0.2986 ± 0.0026 | 0.324 ± 0.021 | 0.5128 ± 0.0022 | 0.362 ± 0.044
VWVISLCIGGVG | 0.298 ± 0.0059 | 0.366 ± 0.0041 | 0.241 ± 0.026 | 0.399 ± 0.011 | 0.205 ± 0.011 | 0.225 ± 0.021 | 0.3811 ± 0.002 | 0.314 ± 0.025
GYRFSILSILRV | 0.581 ± 0.031 | 0.611 ± 0.014 | 0.513 ± 0.024 | 0.627 ± 0.012 | 0.488 ± 0.017 | 0.47 ± 0.023 | 0.612 ± 0.016 | 0.482 ± 0.025
VFSGGGFFLKVV | 0.67453 ± 9.2e-05 | 0.765 ± 0.01 | 0.651 ± 0.024 | 0.755 ± 0.022 | 0.19 ± 0.0039 | 0.215 ± 0.023 | 0.504 ± 0.02 | 0.3766 ± 0.0029
RICCLFILLFCL | 0.439 ± 0.043 | 0.464 ± 0.024 | 0.396 ± 0.03 | 0.477 ± 0.0084 | 0.422 ± 0.0089 | 0.365 ± 0.028 | 0.412 ± 0.019 | 0.423 ± 0.057
SVVWIRFVGVRV | 0.472 ± 0.026 | 0.507 ± 0.022 | 0.322 ± 0.024 | 0.5291 ± 0.0048 | 0.285 ± 0.0075 | 0.328 ± 0.016 | 0.499 ± 0.0089 | 0.418 ± 0.0043
CLSGPFRSLAVF | 0.545 ± 0.029 | 0.6286 ± 0.0025 | 0.485 ± 0.031 | 0.6326 ± 0.0051 | 0.341 ± 0.009 | 0.365 ± 0.023 | 0.5263 ± 0.0018 | 0.425 ± 0.038
LFWFRGTIVTPR | 0.693 ± 0.027 | 0.726 ± 0.017 | 0.638 ± 0.015 | 0.7371 ± 0.0069 | 0.635 ± 0.019 | 0.6335 ± 0.0044 | 0.705 ± 0.018 | 0.693 ± 0.034
VGLWCWSFVLVW | 0.0589 ± 0.018 | 0.0934 ± 0.034 | 0.11 ± 0.03 | 0.189 ± 0.0028 | 0.0842 ± 0.021 | 0.103 ± 0.023 | 0.153 ± 0.0027 | 0.156 ± 0.038
VISGFVLVFRVR | 0.509 ± 0.0038 | 0.543 ± 0.029 | 0.356 ± 0.022 | 0.591 ± 0.066 | 0.379 ± 0.026 | 0.344 ± 0.032 | 0.566 ± 0.035 | 0.441 ± 0.028
VYRILFWFLCFG | 0.489 ± 0.023 | 0.406 ± 0.072 | 0.422 ± 0.026 | 0.564 ± 0.043 | 0.4545 ± 0.0021 | 0.412 ± 0.01 | 0.529 ± 0.045 | 0.4679 ± 0.0011
YCLSCLAKASLM | 0.495 ± 0.036 | 0.606 ± 0.0019 | 0.524 ± 0.021 | 0.5686 ± 0.0039 | 0.164 ± 0.0029 | 0.19 ± 0.0066 | 0.38 ± 0.011 | 0.28811 ± 0.00011
ICTHPCLRLRLN | 0.517 ± 0.039 | 0.662 ± 0.028 | 0.634 ± 0.012 | 0.732 ± 0.019 | 0.0875 ± 0.018 | 0.0887 ± 0.016 | 0.144 ± 0.055 | 0.165 ± 0.0032
FPWGRIFLRLRT | 0.34 ± 0.083 | 0.347 ± 0.025 | 0.47 ± 0.042 | 0.565 ± 0.01 | 0.5445 ± 0.0029 | 0.441 ± 0.015 | 0.5125 ± 0.0051 | 0.487 ± 0.049
PHSMRTTTIMCS | 0.357 ± 0.034 | 0.444 ± 0.021 | 0.296 ± 0.031 | 0.516 ± 0.0075 | 0.214 ± 0.0032 | 0.243 ± 0.056 | 0.436 ± 0.0045 | 
GAVGRWGWVSFV | 0.699 ± 0.038 | 0.7732 ± 0.0059 | 0.653 ± 0.014 | 0.7883 ± 0.0033 | 0.337 ± 0.0076 | 0.357 ± 0.025 | 0.638 ± 0.052 | 
GPPPPPSLLLLC | 0.6 ± 0.04 | 0.712 ± 0.0078 | 0.614 ± 0.025 | 0.721 ± 0.011 | 0.201 ± 0.0072 | 0.211 ± 0.015 | 0.345 ± 0.02 | 
GVAVVWVGLGVT | 0.325 ± 0.011 | 0.445 ± 0.043 | 0.27 ± 0.018 | 0.474 ± 0.0068 | 0.227 ± 0.013 | 0.262 ± 0.017 | 0.4519 ± 0.0017 | 

From the supplement of paper PMC10724198
